Measured values published in patent US10301596B2, “Method of repairing damaged chondrocytes via low-dose irradiation” (KOREA INSTITUTE OF RADIOLOGICAL & MEDICAL SCIENCES, priority 2013, dated 2019).

System: chondrocytes
Experiment: Levels of differentiation- and inflammation-related proteins (type II collagen, Sox-9, I-κB, COX-2), Western blot in chondrocytes
Type: cell-based
Conditions: 10 ng/mL EGF, 10 nM PMA or 1 μM RA
Protocol: First, the chondrocytes derived from joints were cultured in a DMEM medium according to a known method (E. H. Hong, et al., J. Biol. Chem. 285:1283-1295, 2010). Then, the cultured chondrocytes were inoculated into culture dishes at a density of 5×10^4 cells/cm^2, which were irradiated with 0 cGy, 0.5 cGy, 1.0 cGy, 1.5 cGy, and 2.0 cGy LDR using a ^137Cs-ray source (KIRMS, Korea), and the levels of type II collagen or Sox-9 protein, which are cartilage-specific differentiation marker proteins, and I-κB or COX-2 protein, which are inflammation-related proteins, were determined via Western blot analysis, and the transcriptional activity of Sox-9 protein and NF-κB, which is affected by I-κB, were determined by reporter gene assay (FIGS. 1a and b). […]
Finally, chondrocytes were transfected with 3 μg of GFP-labeled S83A α-catenin, FLAG-labeled S33A β-catenin, or wild type γ-catenin, reacted with or without treatment with 5 μM or 10 μM BAY 11-7082 for 24 hours, and the levels of I-κB and COX-2 proteins were determined via Western blot analysis (FIG. 5g). […]

B1: epidermal growth factor (protein, UniProt P01133 23-1207, looked up)
Pro-epidermal growth factor: PQHWSCPEGTLAGNGNSTCVGPAPFLIFSHGNSIFRIDTEGTNYEQLVVDAGVSVIMDFHYNEKRIYWVDLERQLLQRVFLNGSRQERVCNIEKNVSGMAINWINEEVIWSNQQEGIITVTDMKGNNSHILLSALKYPANVAVDPVERFIFWSSEVAGSLYRADLDGVGVKALLETSEKITAVSLDVLDKRLFWIQYNREGSNSLICSCDYDGGSVHISKHPTQHNLFAMSLFGDRIFYSTWKMKTIWIANKHTGKDMVRINLHSSFVPLGELKVVHPLAQPKAEDDTWEPEQKLCKLRKGNCSSTVCGQDLQSHLCMCAEGYALSRDRKYCEDVNECAFWNHGCTLGCKNTPGSYYCTCPVGFVLLPDGKRCHQLVSCPRNVSECSHDCVLTSEGPLCFCPEGSVLERDGKTCSGCSSPDNGGCSQLCVPLSPVSWECDCFPGYDLQLDEKSCAASGPQPFLLFANSQDIRHMHFDGTDYGTLLSQQMGMVYALDHDPVENKIYFAHTALKWIERANMDGSQRERLIEEGVDVPEGLAVDWIGRRFYWTDRGKSLIGRSDLNGKRSKIITKENISQPRGIAVHPMAKRLFWTDTGINPRIESSSLQGLGRLVIASSDLIWPSGITIDFLTDKLYWCDAKQSVIEMANLDGSKRRRLTQNDVGHPFAVAVFEDYVWFSDWAMPSVMRVNKRTGKDRVRLQGSMLKPSSLVVVHPLAKPGADPCLYQNGGCEHICKKRLGTAWCSCREGFMKASDGKTCLALDGHQLLAGGEVDLKNQVTPLDILSKTRVSEDNITESQHMLVAEIMVSDQDDCAPVGCSMYARCISEGEDATCQCLKGFAGDGKLCSDIDECEMGVPVCPPASSKCINTEGGYVCRCSEGYQGDGIHCLDIDECQLGEHSCGENASCTNTEGGYTCMCAGRLSEPGLICPDSTPPPHLREDDHHYSVRNSDSECPLSHDGYCLHDGVCMYIEALDKYACNCVVGYIGERCQYRDLKWWELRHAGHGQQQKVIVVAVCVVVLVMLLLLSLWGAHYYRTQKLLSKNPKNPYEESSRDVRSRRPADTEDGMSSCPQPWFVVIKEHQDLKNGGQPVAGEDGQAADGSMQPTSWRQEPQLCGMGTEQGCWIPVSSDKGSCPQVMERSFHMPSYGTQTLEGGVEKPHSLLSANPLWQQRALDPPHQMELTQ
modifications: Pro-epidermal growth factor
notes: agent known to induce dedifferentiation of chondrocytes
  pathological changes induced by soluble factor (type II collagen, Sox-9, COX-2 proteins): inhibition of expression of type II collagen and Sox-9 proteins and induction of COX-2 protein expression
